The assay addresses CeHsc70-Δ512 (lidless CeHsc70) (C. elegans), P09446.

Chain of CeHsc70-Δ512 (lidless CeHsc70) (C. elegans), P09446 (P09446 1-512, stated change not applied): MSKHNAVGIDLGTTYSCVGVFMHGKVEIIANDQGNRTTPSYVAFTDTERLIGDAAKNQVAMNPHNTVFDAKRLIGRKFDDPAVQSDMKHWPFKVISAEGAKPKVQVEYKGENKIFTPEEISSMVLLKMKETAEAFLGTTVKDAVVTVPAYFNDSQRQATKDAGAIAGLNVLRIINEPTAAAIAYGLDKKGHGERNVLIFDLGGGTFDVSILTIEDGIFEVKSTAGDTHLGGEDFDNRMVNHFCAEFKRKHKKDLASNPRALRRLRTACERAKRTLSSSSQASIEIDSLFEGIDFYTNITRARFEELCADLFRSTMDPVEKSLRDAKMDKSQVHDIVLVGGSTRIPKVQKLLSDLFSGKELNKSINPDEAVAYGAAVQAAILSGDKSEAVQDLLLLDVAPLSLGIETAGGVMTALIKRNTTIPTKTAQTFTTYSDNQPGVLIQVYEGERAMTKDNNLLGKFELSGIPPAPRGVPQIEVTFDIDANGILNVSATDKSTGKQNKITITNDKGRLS

B1: BAG-1 (C. elegans, unlabelled), O44739 1-210 (natural protein)
chain: MKVNVSCSSVQTTIDILEENQGEDESILTLGQLRDRIATDNDVDVETMKLLHRGKFLQGADDVSLSTLNFKENDKIIVMGGKNALVDDAGFKMLMQYEKHNLSNLQKAYDLNLRDVADLERGFLEKPKQVEMGKKLEKKVKYFNEEAERHLETLDGMNIITETTPENQAKRNREKRKTLVNGIQTLLNQNDALLRRLQEYQSVLNGDIPE
Turning to B1, the apparent KD of BAG-1 from titration of the steady-state ATPase activity, standard buffer, 25°C was found to be 6.5 µM.
